{"source": "paper PMC11298613", "biological_target": "HA-bromoTAG-PPM1H"}
{"substance": "FLAG-dTAG-SMAD3", "values": [{"measurement": "decrease in tail phosphorylation of dTAG-SMAD3 by immunoblot in U2OS cells co-expressing both, 2 h TGF-β with BDPIC 0.1-10 μM against DMSO", "value": 50, "unit": "%"}]}
